Results reported in the supplement of paper PMC10567573.

B1: EIF5 (parent)
chain: KQTIGNSCKACGYRGMLDTHHKLC

Variants of: B1
Assay: protein stability index of a GFP-peptide fusion (GPS, HEK-293T) (PSI 1-6); higher = more stable
Details: c terminus: a fixed tail appended
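Further: lentivirally expressed fusions sorted by FACS into six bins by GFP to DsRed ratio, PSI derived from sequencing read proportions per bin multiplied by bin number.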

Variant	protein stability index
KQTDGNSCKACGYRGMLDTHHKLC [I4D]	3.95
KQTEGNSCKACGYRGMLDTHHKLC [I4E]	3.92
KQTFGNSCKACGYRGMLDTHHKLC [I4F]	3.02
KQTGGNSCKACGYRGMLDTHHKLC [I4G]	3.56
KQTHGNSCKACGYRGMLDTHHKLC [I4H]	3.39
KQTKGNSCKACGYRGMLDTHHKLC [I4K]	3.41
KQTLGNSCKACGYRGMLDTHHKLC [I4L]	3.73
KQTMGNSCKACGYRGMLDTHHKLC [I4M]	3.63
KQTNGNSCKACGYRGMLDTHHKLC [I4N]	3.63
KQTPGNSCKACGYRGMLDTHHKLC [I4P]	3.44
KQTQGNSCKACGYRGMLDTHHKLC [I4Q]	4.17
KQTRGNSCKACGYRGMLDTHHKLC [I4R]	3.31
KQTSGNSCKACGYRGMLDTHHKLC [I4S]	3.75
KQTTGNSCKACGYRGMLDTHHKLC [I4T]	3.29
KQTVGNSCKACGYRGMLDTHHKLC [I4V]	3.57
KQTWGNSCKACGYRGMLDTHHKLC [I4W]	2.82
KQTYGNSCKACGYRGMLDTHHKLC [I4Y]	3.08
KQTIANSCKACGYRGMLDTHHKLC [G5A]	3.23
KQTICNSCKACGYRGMLDTHHKLC [G5C]	3
KQTIDNSCKACGYRGMLDTHHKLC [G5D]	3.53
KQTIENSCKACGYRGMLDTHHKLC [G5E]	4.09
KQTIFNSCKACGYRGMLDTHHKLC [G5F]	2.64
KQTIHNSCKACGYRGMLDTHHKLC [G5H]	2.96
KQTIINSCKACGYRGMLDTHHKLC [G5I]	3.12

Variant	protein stability index
KQTIKNSCKACGYRGMLDTHHKLC [G5K]	3.26
KQTILNSCKACGYRGMLDTHHKLC [G5L]	2.37
KQTIMNSCKACGYRGMLDTHHKLC [G5M]	4.13
KQTINNSCKACGYRGMLDTHHKLC [G5N]	3.44
KQTIPNSCKACGYRGMLDTHHKLC [G5P]	3.41
KQTIQNSCKACGYRGMLDTHHKLC [G5Q]	3.3
KQTIRNSCKACGYRGMLDTHHKLC [G5R]	2.53
KQTISNSCKACGYRGMLDTHHKLC [G5S]	2.95
KQTITNSCKACGYRGMLDTHHKLC [G5T]	2.99
KQTIVNSCKACGYRGMLDTHHKLC [G5V]	3.46
KQTIWNSCKACGYRGMLDTHHKLC [G5W]	2.34
KQTIYNSCKACGYRGMLDTHHKLC [G5Y]	2.81
KQTIGASCKACGYRGMLDTHHKLC [N6A]	3.1
KQTIGCSCKACGYRGMLDTHHKLC [N6C]	3.71
KQTIGDSCKACGYRGMLDTHHKLC [N6D]	3.63
KQTIGESCKACGYRGMLDTHHKLC [N6E]	3.62
KQTIGFSCKACGYRGMLDTHHKLC [N6F]	3.34
KQTIGGSCKACGYRGMLDTHHKLC [N6G]	3.33
KQTIGHSCKACGYRGMLDTHHKLC [N6H]	3.03
KQTIGISCKACGYRGMLDTHHKLC [N6I]	3.84
KQTIGKSCKACGYRGMLDTHHKLC [N6K]	3.11
KQTIGLSCKACGYRGMLDTHHKLC [N6L]	2.96
KQTIGMSCKACGYRGMLDTHHKLC [N6M]	2.83
KQTIGPSCKACGYRGMLDTHHKLC [N6P]	3.12

Variant	protein stability index
KQTIGQSCKACGYRGMLDTHHKLC [N6Q]	3.95
KQTIGRSCKACGYRGMLDTHHKLC [N6R]	2.84
KQTIGSSCKACGYRGMLDTHHKLC [N6S]	3.24
KQTIGTSCKACGYRGMLDTHHKLC [N6T]	3.66
KQTIGVSCKACGYRGMLDTHHKLC [N6V]	3.52
KQTIGWSCKACGYRGMLDTHHKLC [N6W]	2.62
KQTIGYSCKACGYRGMLDTHHKLC [N6Y]	3.92
KQTIGNACKACGYRGMLDTHHKLC [S7A]	3.96
KQTIGNCCKACGYRGMLDTHHKLC [S7C]	3.5
KQTIGNDCKACGYRGMLDTHHKLC [S7D]	3.83
KQTIGNECKACGYRGMLDTHHKLC [S7E]	3.82
KQTIGNFCKACGYRGMLDTHHKLC [S7F]	3.91
KQTIGNGCKACGYRGMLDTHHKLC [S7G]	3.5
KQTIGNHCKACGYRGMLDTHHKLC [S7H]	4.11
KQTIGNICKACGYRGMLDTHHKLC [S7I]	4.31
KQTIGNKCKACGYRGMLDTHHKLC [S7K]	3.93
KQTIGNLCKACGYRGMLDTHHKLC [S7L]	4.11
KQTIGNMCKACGYRGMLDTHHKLC [S7M]	3.58
KQTIGNNCKACGYRGMLDTHHKLC [S7N]	3.25
KQTIGNPCKACGYRGMLDTHHKLC [S7P]	2.91
KQTIGNQCKACGYRGMLDTHHKLC [S7Q]	4.08
KQTIGNRCKACGYRGMLDTHHKLC [S7R]	3.11
KQTIGNTCKACGYRGMLDTHHKLC [S7T]	3.29
KQTIGNVCKACGYRGMLDTHHKLC [S7V]	3.72

Variant	protein stability index
KQTIGNWCKACGYRGMLDTHHKLC [S7W]	2.64
KQTIGNYCKACGYRGMLDTHHKLC [S7Y]	4.17
KQTIGNSAKACGYRGMLDTHHKLC [C8A]	2.06
KQTIGNSDKACGYRGMLDTHHKLC [C8D]	2.48
KQTIGNSEKACGYRGMLDTHHKLC [C8E]	2.68
KQTIGNSFKACGYRGMLDTHHKLC [C8F]	1.44
KQTIGNSGKACGYRGMLDTHHKLC [C8G]	2.03
KQTIGNSHKACGYRGMLDTHHKLC [C8H]	1.91
KQTIGNSIKACGYRGMLDTHHKLC [C8I]	1.74
KQTIGNSKKACGYRGMLDTHHKLC [C8K]	2.28
KQTIGNSLKACGYRGMLDTHHKLC [C8L]	3.05
KQTIGNSMKACGYRGMLDTHHKLC [C8M]	1.86
KQTIGNSNKACGYRGMLDTHHKLC [C8N]	2.78
KQTIGNSPKACGYRGMLDTHHKLC [C8P]	1.88
KQTIGNSQKACGYRGMLDTHHKLC [C8Q]	1.91
KQTIGNSRKACGYRGMLDTHHKLC [C8R]	1.69
KQTIGNSSKACGYRGMLDTHHKLC [C8S]	2.19
KQTIGNSTKACGYRGMLDTHHKLC [C8T]	2.05
KQTIGNSVKACGYRGMLDTHHKLC [C8V]	1.78
KQTIGNSWKACGYRGMLDTHHKLC [C8W]	1.95
KQTIGNSYKACGYRGMLDTHHKLC [C8Y]	1.44
KQTIGNSCAACGYRGMLDTHHKLC [K9A]	3.57
